Results: the nanobody polyreactivity screen of Harvey et al. (2022)

Assay: yeast display, Sf9 membrane polyspecificity reagent, FACS + sequencing; frameworks hold sequencing errors
Summary of the method: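 Nanobodies from a synthetic yeast display library (Saccharomyces cerevisiae BJ5465), induced 36–48 hours with galactose, were stained 1 hour at 4 °C with 10% biotinylated, detergent-solubilized Sf9 membrane reagent, enriched on streptavidin microbeads, then FACS-sorted. Anti-HA (expression) and streptavidin (reagent binding) fluorescence set low and high (top ~1%) gates. Polyreactivity labels come from the gate of origin. Genes were colony-PCR amplified, MiSeq 2 × 250 sequenced and filtered by CDR length.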

Sequence | polyreactivity (PSR sort gate)
QVQLVESGGGLVQAGGSLRLSCAASGSIFRSYTMGWYRQAPGKEREFVAAITKRGGSTYYADSVKGRFTISRDNAKNTVYLQMNSLKPEDTAVYYCAAVAGHYYYFRELGYWGQGTQVTVSS | high polyreactivity
QVQLVESGGGLVQAGGSLRLSCAASGFIFPQYAKGWYRQAPGKERELVAAISTGGGSTYYADSVKGRFTISRDNAKNTVYLQMNSLKPEDTAVYYCNARPKYDSGHYYWGQGTQVTVSS | high polyreactivity
QVQLVESGGGLVQAGGSLRLSCAASGRIFYYNSMGWYRQAPGKERELVAAIRRSGSRTYYADSVKGRFTISRDNAKNTVYFQMNSLIPEDTAVYYCAAKYASFGHHDSWGQGTQVTVSS | high polyreactivity
QVQLVESGGGLVQAGGSLRLTCAASGSIFFQNAMGWYRQAPGKERELVATITSSVGSTYYADSVKGRFTISRDNAKNTVYFQMNSLKPEDTAVYYCNVRVFSAALWYTYFGYDYWGQGTQVTVSS | low polyreactivity
QVQLVESGGGLVQAVGSLRLSCAASGRTFNLYAMGWYRQAPGKERELVAAITRRGGRTYYADSVKGRFTISRDNAKNTVYLQMNSLKPEDTAVYYCAARGYYGKFSGSGYWGQGTQVTVSS | high polyreactivity
QVQLVESGGGLVQAGGSLRLSCAASGRIFALYTMGWYIQAPGKERELVAAITTSGGSTYADSVKGRFTISRDNAKNTVYLQMNSLKPEDTAVYYCNAQGYEGLGEFDYWGQGTQLTVSS | low polyreactivity
QVQLVESGGGLVQAGGSLRISCAASASIFPQYALGWYRQAPGKERELVAGISGSGGGTYYADSVKGRFTISRDNAKNTVSVQIHSLKPEDTAVYYCYDYWRQGTQVTVSS | low polyreactivity
QVQLVESGGGLVQAGGSLRLSCAASGFIFVQNTMGWYRQAPGKERELVAAISRGTGRTYYADSVKGRFTISRDNAKNTVYLQMNSLKPDDTAVYYCNVVYPQRYRSREDDYWGQGTQVTVSS | high polyreactivity
QVHLVESGGGLVQAGGSLRLSCADSGSTFVAYAMGWYRQAPGKERDLVAAISKSGVRTYYADSVKGRFTISRDNAKNTVYLVMISLKPEDNAVYVCAADSGDLWGPFGYWGQGTQVTVSS | low polyreactivity
QVQLLESGGGLVQAGGSIRLTCAASGRIFYGNTMGWYRQAPGQETELVAAITIGDSTNYADSVKGRFTISRDNAKYTVYLQMNSLKPEDTAVFYCGKRNWWGYYKYDYWGQGSQVTVSS | low polyreactivity
QVQLVESGGGLVQAGGSLRLSCAASASILGSNAMGWYSQAPGKEREFVAAITWTGGSTYYADSVKGRFTISRDNAKNTVYLQMNSLKPEDSAVYYWAKDVKYVKMDDWGQGTQVTVSS | low polyreactivity
QVQLVESGGGLVQAGGSLRLSCAASGRTFQVNAMGWYREAPGKERELVAAISIRSGRTYYADSVKGRFTISRYNAKNTVYLQMNSLKPEDTAVYYCAAYRISVYGVGYWGQGTQVTVSS | high polyreactivity
QLQLVESGGGLVQAGGSLRLSCAASGRIFYPYAMGWYRQAPGKERELVPAIDYSDGNSYYADSVKGRFTISRDNAKNTVYLQMNSLKPEDTAVYYWAVEYTGAWIGVWYDYWGQGTQVTVSS | high polyreactivity
QVQLVESGGGLVQAGGSLRLSCAASGFTFTYYAMGWYRQAPGKERELVAAISSSGGRTYYADSVKGRFTISRDNAKNTVYLQMNSLKPEDTAVYYCAARSVSATPDFHYWGQGTQVTVSS | high polyreactivity
QVQLVESGGGLVQAGGSLRLSCAASGRTFRDYAMGWYRQAPGKERELVAAINWSGGTTSYADSVKGRFTISRDNAKNTVYLQMNSLKPEDTAVYYCAVPYLYKYSRYDYWGQGTQVTVSS | high polyreactivity
QVQLVESGLGLVQAGRSLRLSCASSGRIFNYYAMVWYRQAPGKERELVAGINWSGTRTYYADSVKGRFTISRDNAKNTVYLQMNSLKPEDTAVYYCNAGRTWRAFTGDEYWGQGTQVSVSS | high polyreactivity
QVQLVESGGGLVQAGGSIRLSCAASGRTFPAYAMGWYRQAPGKERELVAAISYSGGRTRYADSVKGRFTISRDNAKYTVYLQMNSLKPEDTAVYYCNRVIPTQSLRDYYWGQGTQVTVSS | high polyreactivity
QVQLVESGGGLVQAGGSLRLSCAASGSIFSWYAMGWYRQAPGKERELVAAISGITGSTYYADSVKGRFTISRDNAKNTVYLQMNSLKPEDTAVYYCRALAGYASGMDYWGQGTQVTVSS | high polyreactivity
QVQLVESGLGLVKAGGSLRLSCAASGNTFDHYVMVWSRQAPGKEPELVASITSGGSTNYADSVKGRFTISRDNAKNTVYLQMNSLKPEDTAVYYCAVSLSYWYEAFTTRIDYYYWGQGTQVTLSS | high polyreactivity
QVQIVESGGGLVQAGGSLRLSCASSGSTFVSYDMGWYRQAPGKERELVADISWSGVSTYADSVKGRFTISRDNAMNTVYLQMNSLKPEDTAVYYCAKDSDLYQRGGYYWGQGTQVTVSS | low polyreactivity
QVQLVESGGGLVQAGGSLRLSCAASGSTFYRYAMGWYRQAPGKERELVAAITRTTARTYYADSVKGRFTISRDYAKNTVYLQMNSLKPEDTAVYYCAADLYSWTWSGFRQYDYWGQGTQVTVSS | high polyreactivity
QVQLVESGGGLVQAGGSLRLSCAASGFIFTDYAMGWYRQAPGKERELVATISWSGSSTYYADSVKGRFTISRDNAKNTVYLQMNSLKPEDTAVYYCAAEFWYTYPYLVDYWGQGTKVTVSS | low polyreactivity

Sequence | polyreactivity (PSR sort gate)
QVQLVESGGGLVQAGGSLRLSCAASGSTFYPYAMGGYRQAPGKERELVAAISSGGSTYYADSVKGRFTISRDNAKNTVYLQMNSLKPADTAVYYCAADFYYAYYWGQGTQVTVSS | low polyreactivity
QVQLVESGGGLVQAGGSLRLSCAASGRIYWNTMGWYRQAPGKERELVASISTGGGRTYYADSVKGRFTISRDNAKNTVYLQMNSLKPEDTAVYYCAVRSYGHGFDYWGQGTQVTVSS | high polyreactivity
QVQLVESGGGLVQAGGSLRLSCAASGFIFKIYAMGWYRQAPGKERELVAAMSSGDNTNYADSVKGRFTISRDNAKNTVYLQMNSLKPEDTAVYYCAADWSPTAASDYWGQGTQVTVSS | high polyreactivity
QVQLVESGGGLVQAGGSLRLSCAASGFTFKSYAMGWYRQAPGKERELVAAINRSGGSTYYADSVKGRFTISRDNAKNTVYLQMNSLKPEDTAVYYCAAVKPPDYYYWGQGTQVTVSS | high polyreactivity
QVQLVESGGGLVQAGGSLRLSCAASGRIFQHNTMGWYRQAPGKEREFVAAIRRSGGSTYYADSVKGRFTISRDNAKNTVYLQMNSLKPEDTAVYYCAARDYPTGTRRWGGGDSWGQGTQVTVSS | low polyreactivity
QVQIEESRGGLVQAGGSLRLSCAASGRTFYYYAMGWYRQAPGKERELVAAISYRGGSTYYADSVKGRFTISRDNAKNTVFLQLNSLKPEDTAVYYCAKYPHPLKYPGYPSEFDYWGQGTQVSVSS | low polyreactivity
QVQLVESGGGLVQAGGSLRIICAASGRTFSYYAMGWYRQAPGKERELVAVITSSGGSTSYADSVKGRFTISRDNAKNTVYLQMKSLKPEDTAVYYCAADPLAVSWAYYLFGVDYWGHGTQVTVSS | high polyreactivity
QVQLVESGGGLVQAGGSLRLSCAASGFTFGRYAMGWYRQAPGKEREFVAAITWSGGGTYYADSVKGRFTISRDNAKNTVYLQMNSLKPEDTAVYYCAADRRAYGGGYWGQRTQVTVSS | high polyreactivity
QVQLVESGAGLVQAGGSLRLSCAASGSTFYPYAMGWYRQAPGKERELVAAISWSGGSTYYADSVKGRFTISRDNAKNTVYLQMNSLKPEDTAVYYCAAEYYYIAYTMDYWGQGTQVTVSS | high polyreactivity
QVQLVESGGGLVQAGGSLRLSCAASGRTFPSYAMGWYRQAAGKERELVAAITVSGGNTYYADSVKGRFTISRDNAKNTVYLQMNSLKPEDTAVYYCNTASYVSWYVHYYYWGQGTQVTVSS | low polyreactivity
QVQLVESGGGLVQAGGSLRLSCAASGYTFARNAMGWYRQAPGKERELVADINWSGTNTYYADSVKGRFTISRDNAKNTVYLQMNSLKPEDTAVDYCAKDLYFSGYEFDYWGQGTQVTVSS | low polyreactivity
QVQLVESGGGLVQAGGSLSLSCAASGLTFDTNAMGWYRQAPGKERELVAAITDSGDSTYYADSVKGRFTISRDNEKNTVYLQMNSLKPEDTAVYYCAARRSNLAWGRRRMYYWGQGTQVTVSS | high polyreactivity
QVQLVESGGGFVQAGGSLRLSCAASGRTFIYNAMGWYRQAPGKERELVARISSGGGNTYYADSVKGRFTISRDNAKNPVYLQINSLKPEDTAVYYGAKGWRPSFSYYWGQGTQVTVSS | high polyreactivity
QVQLVESGGGFVQAGGSLRLSCASSGRIFYRNAMVWYRQAPGKESELVAAILGSGGRTYYADSVKGSFTISRDTAKNNVYLQMNSMKPEVTAVYYCAAYGYYVEHPRGLSGPYDDDYWGQGTQVTVSS | low polyreactivity
QVQLVESGGGLVQAGGSLRLSCASSGRTFRYNAKGWYRQAPGKERELVAAISWSGGGTYYSDSVKGRFTISRDNAKNTVYLQMNSLKPEDTAVYYCAAEEQIPLTNNSKYYYWGQGTQVTVSS | low polyreactivity
QVQLVESGGGSVQAGGSLRLICAASGSTFSDYDMGWYRQAPGKERELVAAISIGGRTNYADSVKGRFTISRDNAKNTVYLQMNSLKPEDTAVYDCAADSQSIYAYWPGGGYGYWGQGTQVTLSS | low polyreactivity
QVQLVESGGGLVQAGGSLRLSCAASGRIFRTYAMGWYRQAPGKERELVAAISYSGGSTFYADSVKGRFTISRDNAKNTVYLQMNSLKPEDTAVYYCAADSRAKRYYWGQGTQVTVSS | high polyreactivity
QVQLVESGGGLVQAGGSLRLSCAASGFIFSGNAMGWYRQAPGKERELVARIRSGDRTYYADSVKGRFTISRDNAKNTVYLQMNSLKPEDTAVYYCAAYAWYDWRSYFPILGYEYCGQGTQVTVSS | low polyreactivity
QVQLVESGGGLVQAGGSLRLICAASGRTFRFYAMGWYRQAPGKERELVAAINYGGGNTYYADSVKGRFTISRDNAKNTVYLQMNSLKADDTAVYYCAAQYYYRARWFPYDYWGQGTQVTVSS | high polyreactivity
QVQLVESGGALVQAGGSLRLSCAASGFTFTINDMGWYRQAPGKERELVATINDSAGSTYYADSVKGRFTISRDNAKNTVYLQMNSQKPDATAVYYCNAYKATRWFEYVYWGQGTQVTVSS | low polyreactivity
QVQLVESGGGLVQAGGSLRLSCAASGFIIQYYAMGWYRQAPGKERELVAVISLSGGRTSYADSVKGRFTISRDNAKNTVYLQMNSLKPEDTAVYYCARRVWSASNDYWGQGTQVTVSS | high polyreactivity
